{"source": "patent US20190270811A1", "about": "(UCB, published 2019)", "key": {"[1]": {"target": "T1, Human FcRn extracellular domain (non-covalent complex of human FcRn alpha chain extracellular domain and … (human, UniProt P55899 24-297; P61769 21-119)", "T1 construct": "also called hFcRn; hFcRn alpha chain ECD region with human beta 2 microglobulin", "test": "SPR Biacore T200, IgG4P captured by anti-human Fc, hFcRn ECD/b2M as analyte, pH 6.0, mean of 3", "experimental": "(§1) Biomolecular interaction analysis using surface plasmon resonance technology (SPR) was performed on a Biacore T200 system (GE Healthcare) and binding to human FcRn extracellular domain determined.\n(§2) The surface was regenerated by 2×60 s 50 mM HCl at 10 μl/min for the running buffer at pH6 or by 60 s 40 mM HCl and 30 s 10 mM NaOH for the running buffer at pH7.4. The data was analysed using T200 evaluation software (version 1.0) using the 1:1 binding model with local Rmax."}, "[2]": {"target": "T1, Human FcRn extracellular domain …", "test": "SPR Biacore T200, IgG4P captured by anti-human Fc, hFcRn ECD/b2M as analyte, pH 7.4, run 2", "experimental": "as §1, §2"}, "[3]": {"target": "T1, Human FcRn extracellular domain …", "test": "SPR Biacore T200, IgG4P captured by anti-human Fc, hFcRn ECD/b2M as analyte, pH 6.0, run 3", "experimental": "as §1, §2"}, "[4]": {"target": "T1, Human FcRn extracellular domain …", "test": "SPR Biacore T200, IgG4P captured by anti-human Fc, hFcRn ECD/b2M as analyte, pH 6.0, run 1", "experimental": "as §1, §2"}, "[5]": {"target": "T2, Human FcRn expressed on MDCK II clone 15 cells (human FcRn and human B2M) (human, UniProt P55899 24-365)", "T2 construct": "whole, on cells", "test": "quantitative flow cytometry, AlexaFluor 488-labelled antibody on MDCK II clone 15 cells, pH 7.4, mean of n=3", "experimental": "(§3) Specific binding of antibody to FcRn across a range of antibody concentrations was used to determine KD.\n(§4) The final antibody concentrations ranged from 400 nM to 0.003 nM. The cells were washed in ice cold Facs buffer then analysed by flow cytometry using a Guava flow cytometer (Millipore, UK). Titration data sets were also produced for isotype control antibodies for each antibody format to determine non-specific binding. The number of moles of bound antibody was calculated using interpolated values from a standard curve generated from beads comprised of differing amounts of fluorescent dye. Geometric mean fluorescence values were determined in the flow cytometric analyses of cells and beads. Non-specific binding was subtracted from the anti-FcRn antibody values and the specific binding curve generated was analysed by non-linear regression using a one-site binding equation (Graphpad Prism®) to determine the KD. Data is representative of 3 experiments."}, "[6]": {"target": "T1, Human FcRn extracellular domain …", "test": "SPR Biacore T200, IgG4P captured by anti-human Fc, hFcRn ECD/b2M as analyte, pH 7.4, mean of 3", "experimental": "as §1, §2"}, "[7]": {"target": "T3, Cynomolgus macaque FcRn expressed on MDCK II clone 40 cells (cynomolgus macaque FcRn and B2M) (cynomolgus macaque, UniProt Q8SPV9 24-365; Q8SPW0 21-119)", "T3 construct": "whole, on cells; also called Cyno FcRn", "T3 sequence (Q8SPV9 24-365, chain 1 of 2)": "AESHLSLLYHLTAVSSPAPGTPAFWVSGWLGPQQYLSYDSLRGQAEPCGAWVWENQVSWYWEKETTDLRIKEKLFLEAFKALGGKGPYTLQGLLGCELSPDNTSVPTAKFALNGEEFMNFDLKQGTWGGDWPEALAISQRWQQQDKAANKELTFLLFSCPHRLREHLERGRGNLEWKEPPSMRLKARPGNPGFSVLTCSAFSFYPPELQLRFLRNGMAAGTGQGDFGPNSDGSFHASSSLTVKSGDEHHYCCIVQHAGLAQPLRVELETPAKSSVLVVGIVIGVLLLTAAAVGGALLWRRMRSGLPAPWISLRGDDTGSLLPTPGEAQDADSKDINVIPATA", "T3 sequence (Q8SPW0 21-119, chain 2 of 2)": "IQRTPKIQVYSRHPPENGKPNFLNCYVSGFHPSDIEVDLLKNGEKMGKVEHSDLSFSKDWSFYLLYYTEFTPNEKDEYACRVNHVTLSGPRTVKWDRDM", "test": "quantitative flow cytometry on MDCK II clone 40 cells, pH 6.0, mean of n=3", "text": "as §3"}, "[8]": {"target": "T1, Human FcRn extracellular domain …", "test": "SPR Biacore T200, IgG4P captured by anti-human Fc, hFcRn ECD/b2M as analyte, pH 7.4, run 1", "experimental": "as §1, §2"}, "[9]": {"target": "T3, Cynomolgus macaque FcRn expressed on …", "test": "quantitative flow cytometry on MDCK II clone 40 cells, pH 7.4, mean of n=3"}, "[10]": {"target": "T2, Human FcRn expressed on MDCK II clone …", "test": "quantitative flow cytometry, AlexaFluor 488-labelled antibody on MDCK II clone 15 cells, pH 6.0, mean of n=3", "experimental": "as §3, §4"}, "[11]": {"target": "T1, Human FcRn extracellular domain …", "test": "SPR Biacore T200, IgG4P captured by anti-human Fc, hFcRn ECD/b2M as analyte, pH 7.4, run 3", "experimental": "as §1, §2"}, "[12]": {"target": "T1, Human FcRn extracellular domain …", "test": "SPR Biacore T200, IgG4P captured by anti-human Fc, hFcRn ECD/b2M as analyte, pH 6.0, run 2", "experimental": "as §1, §2"}, "[13]": {"target": "T2, Human FcRn expressed on MDCK II clone …", "test": "cell-based or functional assay"}}, "data": [{"binder": "CA170_1638.g49 IgG4P (antibody, In the flow cytometry assays the antibody was labelled with AlexaFluor 488; also called 1638.49 g IgG4) heavy: not shown light: DIQMTQSPSSLSASVGDRVTITCRTSEDIYTNLAWYQQKPGKVPKLLIYVAKTLQEGVPSRFSGSGSGTHYTLTISSLQPEDVATYYCLQGFKFPWTFGGGTKVEIKRTVAAPSVFIFPPSDEQLKSGTASVVCLLNNFYPREAKVQWKVDNALQSGNSQESVTEQDSKDSTYSLSSTLTLSKADYEKHKVYACEVTHQGLSSPVTKSFNRGEC", "values": [{"measurement": "Kd", "setting": "[1]", "value": 0.127, "unit": "nM"}, {"measurement": "koff", "setting": "[1]", "value": 0.000141, "unit": "s⁻¹"}, {"measurement": "kon", "setting": "[1]", "value": "1.1e+06", "unit": "M⁻¹ s⁻¹"}, {"measurement": "Kd", "setting": "[2]", "value": 0.0332, "unit": "nM"}, {"measurement": "koff", "setting": "[2]", "value": "3.19e-05", "unit": "s⁻¹"}, {"measurement": "kon", "setting": "[2]", "value": 962000, "unit": "M⁻¹ s⁻¹"}, {"measurement": "Kd", "setting": "[3]", "value": 0.127, "unit": "nM"}, {"measurement": "koff", "setting": "[3]", "value": 0.00014, "unit": "s⁻¹"}, {"measurement": "kon", "setting": "[3]", "value": "1.11e+06", "unit": "M⁻¹ s⁻¹"}, {"measurement": "Kd", "setting": "[4]", "value": 0.129, "unit": "nM"}, {"measurement": "koff", "setting": "[4]", "value": 0.000143, "unit": "s⁻¹"}, {"measurement": "kon", "setting": "[4]", "value": "1.1e+06", "unit": "M⁻¹ s⁻¹"}, {"measurement": "Kd", "setting": "[5]", "value": 0.2, "unit": "nM"}, {"measurement": "Kd", "setting": "[6]", "value": 0.0294, "unit": "nM"}, {"measurement": "koff", "setting": "[6]", "value": "2.84e-05", "unit": "s⁻¹"}, {"measurement": "kon", "setting": "[6]", "value": 967000, "unit": "M⁻¹ s⁻¹"}, {"measurement": "Kd", "setting": "[7]", "value": 0.43, "unit": "nM"}, {"measurement": "Kd", "setting": "[8]", "value": 0.0257, "unit": "nM"}, {"measurement": "koff", "setting": "[8]", "value": "2.51e-05", "unit": "s⁻¹"}, {"measurement": "kon", "setting": "[8]", "value": 975000, "unit": "M⁻¹ s⁻¹"}, {"measurement": "Kd", "setting": "[9]", "value": 0.3, "unit": "nM"}, {"measurement": "Kd", "setting": "[10]", "value": 0.22, "unit": "nM"}, {"measurement": "Kd", "setting": "[11]", "value": 0.0293, "unit": "nM"}, {"measurement": "koff", "setting": "[11]", "value": "2.82e-05", "unit": "s⁻¹"}, {"measurement": "kon", "setting": "[11]", "value": 962000, "unit": "M⁻¹ s⁻¹"}, {"measurement": "Kd", "setting": "[12]", "value": 0.126, "unit": "nM"}, {"measurement": "koff", "setting": "[12]", "value": 0.000139, "unit": "s⁻¹"}, {"measurement": "kon", "setting": "[12]", "value": "1.1e+06", "unit": "M⁻¹ s⁻¹"}, {"measurement": "IgG recycling in MDCK II clone 15 cells, EC50", "setting": "[13]", "value": 0.31, "unit": "nM"}, {"measurement": "apical to basolateral transcytosis of human IgG in MDCK II clone 15 cells, EC50", "setting": "[13]", "value": 2.4, "unit": "nM"}]}, {"binder": "CA170_1638.g49 FabFv (bispecific antibody) heavy: EVQLVESGGGLVQPGGSLRLSCAASGFSLSTYGVGVGWVRQAPGKGLEWLANIWWDDDKRYNPSLENRFTISRDNAKNSAYLQMNSLRAEDTAVYYCARTPAYYGSHPPFDYWGQGTMVTVSSASTKGPSVFPLAPSSKSTSGGTAALGCLVKDYFPEPVTVSWNSGALTSGVHTFPAVLQSSGLYSLSSVVTVPSSSLGTQTYICNVNHKPSNTKVDKKVEPKSCSGGGGSGGGGTGGGGSEVQLLESGGGLVQPGGSLRLSCAVSGIDLSNYAINWVRQAPGKCLEWIGIIWASGTTFYATWAKGRFTISRDNSKNTVYLQMNSLRAEDTAVYYCARTVPGYSTAPYFDLWGQGTLVTVSS light: DIQMTQSPSSLSASVGDRVTITCRTSEDIYTNLAWYQQKPGKVPKLLIYVAKTLQEGVPSRFSGSGSGTHYTLTISSLQPEDVATYYCLQGFKFPWTFGGGTKVEIKRTVAAPSVFIFPPSDEQLKSGTASVVCLLNNFYPREAKVQWKVDNALQSGNSQESVTEQDSKDSTYSLSSTLTLSKADYEKHKVYACEVTHQGLSSPVTKSFNRGECGGGGSGGGGSGGGGSDIQMTQSPSSVSASVGDRVTITCQSSPSVWSNFLSWYQQKPGKAPKLLIYEASKLTSGVPSRFSGSGSGTDFTLTISSLQPEDFATYYCGGGYSSISDTTFGCGTKVEIKRT", "values": [{"measurement": "apical to basolateral transcytosis of human IgG in MDCK II clone 15 cells, EC50", "setting": "[13]", "value": 0.42, "unit": "nM"}]}]}
